The source of these data is US20200057058A1 (MIT, published 2020).

Experiment [1] addresses monomeric streptavidin variant mSA2. Nature of the experiment: calculated from [P]T of the mSA2 binding curve fit and film thickness. Details: Calculated Density (density of binding sites within a cross-sectional area of the film): unit not given here. How it is done:
To determine the density of binding proteins within a single plane of each thin film, the concentration of accessible binding sites throughout the entire film—taken directly from the binding assay curve fits (Table 4)—was multiplied by the corresponding film thickness. When accounting for differences in film thickness, the density of oligomerized rcSso7d.SA proteins capable of binding mSA2 is found to increase […] with degree of oligomerization (Table 5). This calculated density decreases, though, between the 1×SP25k and 2×SP25k thin films, indicating a lower density of accessible binding sites in the protein domains of the oligomerized rcSso7d.SA conjugate film. The total number of predicted binding sites within each thin film assuming complete accessibility should be proportional to the […] of rcSso7d. SA in the conjugate with PNIPAM. Reasonable estimates for relative values of the predicted number of sites can thus be obtained by normalizing the weight fraction of rcSso7d. SA in each conjugate by the corresponding weight fraction in 1×SP25k. Comparing these predicted relative number of binding sites to the calculated values (FIG. 6C), all oligomeric rcSso7d.SA conjugates are found to contain fewer proteins capable of binding mSA2 than predicted. It is likely that this effect results from a combination of steric blocking of binding sites by bound mSA2 molecules as well as a lack of the free volume required to incorporate mSA2 molecules into the protein nanodomains at high degrees of binding. Despite the lower than expected binding capacity of the conjugate thin films, these biosensors contain approximately […] the quantity of accessible binding sites compared to rcSso7d.SA monolayers on a volumetric basis (Table 4). Recognizing that each plane (and a monolayer) of rcSso7d.SA proteins is roughly 1-2 nm thick,⁸⁰ the studied thin films can be determined to contain approximately 100 more planes of protein than a monolayer.

Experiment [2] shares this target. Nature of the experiment: fluorescent binding assay, labeled mSA2 in PBS on thin film; quadratic curve fit. On the procedure:
(§1) The binding function of rcSso7d.SA oligomer-PNIPAM thin films was measured using fluorescently-labeled monomeric streptavidin (mSA2) and fluorescently-labeled streptavidin (SA). Details for the expression, purification, and fluorescent labeling of mSA2 are provided below. Samples were prepared by serial dilution of SA or mSA2 in PBS (pH 7.4), human urine (diluted to 50% v/v in PBS, pH 7.4), or blood serum (obtained as the supernatant by centrifuging whole blood at 1500×g for 10 minutes, then diluted to 50% v/v in PBS, pH 7.4). 0.5 μL drops of solutions containing serially diluted fluorescent mSA2 and fluorescent SA samples in PBS (pH 7.4) were gently applied to the surface of each bioconjugate thin film. Films were incubated in a sealed chamber saturated with water vapor at room temperature to prevent to prevent drying of the applied fluorescent samples. After 1 hour, films were thoroughly rinsed with water for 10 seconds (a time determined to be sufficient to remove unbound molecules from the film, see FIG. 33, dried under filtered airflow, and immediately analyzed for fluorescent signal. Fluorescence microscopy images were acquired at 4× magnification using a Cy5 filter set and exposure time of 5000 ms on an Olympus IX-81 inverted fluorescence microscope with an AxioCam HRC CCD camera. Fluorescent intensity was calculated using ImageJ software⁶⁷ by determining the average fluorescent signal in a rectangular area of the fluorescent image free of defects and occupying no less than half of the full sample application area.
Binding assays were performed by adding serially diluted solutions of fluorescently-labeled mSA2 to thin films of each studied conjugate (FIG. 6A). To maintain consistent transport properties between samples, each oligomer was conjugated to the same previously-synthesized 25 kDa PNIPAM sample. Analyte bound to thin films was quantified using fluorescence microscopy, and binding curves were fit to the collected mean fluorescent intensity (MFI) data using the following equation: […]

For experiment [3] the target is unchanged. Description: fluorescent binding assay, labeled mSA2; signal three standard deviations above blank. How it is done:
as §1
Oligomerization of rcSso7d.SA also brings about a decrease in biosensor limit of detection (LOD). […] While all thin films display improvements up to threefold in LOD over the monolayer, the trend in LOD with respect to degree of oligomerization is non-monotonic. The primary factor that is expected to affect LOD in the studied biosensors is number of binding sites, as more binding sites enable a greater number of analyte molecules to be captured and shifts analyte-receptor equilibrium in favor of binding events.

The target of experiment [4] is T1, streptavidin (UniProt P22629 37-163, limits assumed).
T1 construct: It was used without a stated label in the sandwich assays; also called SA
T1 sequence (P22629 37-163 limits assumed): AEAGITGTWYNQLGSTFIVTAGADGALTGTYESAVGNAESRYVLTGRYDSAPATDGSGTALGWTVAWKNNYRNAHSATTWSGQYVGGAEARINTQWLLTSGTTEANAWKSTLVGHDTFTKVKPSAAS
Description: fluorescent binding assay: Alexa Fluor 647-labeled streptavidin applied to the thin film; the sheet names the film 4xSP25k, the legend 4xSP30k. How it is done: as §1, with “Films were incubated in a sealed chamber saturated with water vapor at room temperature to prevent to prevent drying of the applied fluorescent samples.” left out

Experiment [5] deals with monomeric streptavidin variant mSA2. Description: fluorescent binding assay, labeled mSA2 on thin film. On the procedure: as §1, with “Films were incubated in a sealed chamber saturated with water vapor at room temperature to prevent to prevent drying of the applied fluorescent samples.” left out, “area. […]” for “area.”

B1: 4xSP25k thin film (4x rcSso7d.SA-PNIPAM conjugate, 25 kDa PNIPAM) (designed binder)
chain: MGSSHHHHHHSSGLVPRGSHMCATVKFTYQGEEKQVDISKIKIVARDGQYIDFKYDEGGGAYGYGWVSEKDAPKELLQMLEKQGGGGSGGGGSMATVKFTYQGEEKQVDISKIKIVARDGQYIDFKYDEGGGAYGYGWVSEKDAPKELLQMLEKQGGGGSGGGGSMATVKFTYQGEEKQVDISKIKIVARDGQYIDFKYDEGGGAYGYGWVSEKDAPKELLQMLEKQGGGGSGGGGSMATVKFTYQGEEKQVDISKIKIVARDGQYIDFKYDESGGAYGYGWVSEKDAPKELLQMLEKQ
modifications: maleimide end-functionalized PNIPAM (25 kDa) on the N-terminal Cys; film lightly crosslinked with glutaraldehyde
notes: Four rcSso7d.SA repeats joined by (G4S)2 linkers in one chain
In the case of B1, in experiment [1], the “Calculated Density (density of binding sites within a cross-sectional area of the film)” value was 62 and the “Calculated Ratio (film thickness x [P]T relative to the 1xSP25k thin film)” value was 1.31. Moreover, in experiment [2], the “[P]T (total concentration of accessible binding sites)” value came out at 3.7 µM. Further, the “limit of detection (LOD)” value in experiment [3] amounted to 140 nM. In addition, the binding result in experiment [4] was “binds”.

B2: 3xSP25k thin film (3x rcSso7d.SA-PNIPAM conjugate, PNIPAM Mn 24.9 kDa) (designed binder)
chain: MGSSHHHHHHSSGLVPRGSHMCATVKFTYQGEEKQVDISKIKIVARDGQYIDFKYDEGGGAYGYGWVSEKDAPKELLQMLEKQGGGGSGGGGSMATVKFTYQGEEKQVDISKIKIVARDGQYIDFKYDEGGGAYGYGWVSEKDAPKELLQMLEKQGGGGSGGGGSMATVKFTYQGEEKQVDISKIKIVARDGQYIDFKYDEGGGAYGYGWVSEKDAPKELLQMLEKQGG
modifications: maleimide end-functionalized PNIPAM (Mn 24.9 kDa) on the N-terminal Cys; film lightly crosslinked with glutaraldehyde
notes: Three rcSso7d.SA repeats joined by (G4S)2 linkers in one chain; also called conjugate of the trimer
On to B2, for which the “fluorescent signal relative to rcSso7d.SA monolayer” value in experiment [5] was above 10 fold. In experiment [1], the “Calculated Density (density of binding sites within a cross-sectional area of the film)” value is 59 and the “Calculated Ratio (film thickness x [P]T relative to the 1xSP25k thin film)” value was 1.24. In addition, the “[P]T (total concentration of accessible binding sites)” value in experiment [2] amounted to 3.9 µM. For the same molecule, the “limit of detection (LOD)” value in experiment [3] was 110 nM.
